In publication PMC8287952, “PARP1 and CHK1 coordinate PLK1 enzymatic activity during the DNA damage response to promote homologous recombination-mediated repair” (Nucleic Acids Research, 2021):

Target: T1, HIS-PLK1 (UniProt P53350 1-603)
T1 construct: Polo-like kinase 1 (PLK1), HIS tagged, expressed in bacteria via pET28a; also called HIS tagged PLK1; source: bacterially produced (pET28a system)
Experiment: pull-down; GST-CHK1 (insect cells) as bait, HIS-PLK1 (bacterial) as prey; 1 μg of each in NETN buffer (20 mM Tris–HCl pH 8.0, 0.15 M NaCl, 1 mM EDTA, 0.5% NP-40), 4°C overnight; glutathione-sepharose beads; immunoblotting
Details: both partners purified

T1 sequence (P53350 whole entry): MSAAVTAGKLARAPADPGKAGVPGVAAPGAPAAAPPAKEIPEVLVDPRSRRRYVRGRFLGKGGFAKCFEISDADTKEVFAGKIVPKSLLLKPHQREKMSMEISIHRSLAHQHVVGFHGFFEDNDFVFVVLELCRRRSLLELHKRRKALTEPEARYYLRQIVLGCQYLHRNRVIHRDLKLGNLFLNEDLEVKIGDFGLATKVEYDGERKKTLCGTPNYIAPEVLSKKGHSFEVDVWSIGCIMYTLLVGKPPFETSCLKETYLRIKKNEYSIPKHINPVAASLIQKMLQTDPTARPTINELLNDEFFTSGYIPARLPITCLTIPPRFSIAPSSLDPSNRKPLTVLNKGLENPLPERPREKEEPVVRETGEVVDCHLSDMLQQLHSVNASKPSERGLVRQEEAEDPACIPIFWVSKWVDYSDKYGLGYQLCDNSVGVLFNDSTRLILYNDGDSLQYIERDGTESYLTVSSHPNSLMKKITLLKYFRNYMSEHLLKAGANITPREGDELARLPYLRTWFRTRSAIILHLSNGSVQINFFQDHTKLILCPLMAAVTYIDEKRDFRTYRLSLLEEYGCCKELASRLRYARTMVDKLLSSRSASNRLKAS

B1: Recombinant human active protein GST-CHK1 (enzyme, UniProt O14757 1-476, looked up)
chain: MAVPFVEDWDLVQTLGEGAYGEVQLAVNRVTEEAVAVKIVDMKRAVDCPENIKKEICINKMLNHENVVKFYGHRREGNIQYLFLEYCSGGELFDRIEPDIGMPEPDAQRFFHQLMAGVVYLHGIGITHRDIKPENLLLDERDNLKISDFGLATVFRYNNRERLLNKMCGTLPYVAPELLKRREFHAEPVDVWSCGIVLTAMLAGELPWDQPSDSCQEYSDWKEKKTYLNPWKKIDSAPLALLHKILVENPSARITIPDIKKDRWYNKPLKKGAKRPRVTSGGVSESPSGFSKHIQSNLDFSPVNSASSEENVKYSSSQPEPRTGLSLWDTSPSYIDKLVQGISFSQPTCPDHMLLNSQLLGTPGSSQNPWQRLVKRMTRFFTKLDADKSYQCLKETCEKLGYQWKKSCMNQVTISTTDRRNNKLIFKVNLLEMDDKILVDFRLSKGDGLEFKRHFLKIKGKLIDIVSSQKIWLPAT
notes: Human checkpoint kinase CHK1, recombinant active protein; source: bought: R&D Systems (1630-KS-010), produced in insect cells
- binding result: binds
